Results taken from paper PMC4839733.

Target: SP-VSVG-hGLP-1RΔN23-GFP V36A (human) (UniProt P43220)
Sequence of UniProt P43220 (P43220 24-463 V36A): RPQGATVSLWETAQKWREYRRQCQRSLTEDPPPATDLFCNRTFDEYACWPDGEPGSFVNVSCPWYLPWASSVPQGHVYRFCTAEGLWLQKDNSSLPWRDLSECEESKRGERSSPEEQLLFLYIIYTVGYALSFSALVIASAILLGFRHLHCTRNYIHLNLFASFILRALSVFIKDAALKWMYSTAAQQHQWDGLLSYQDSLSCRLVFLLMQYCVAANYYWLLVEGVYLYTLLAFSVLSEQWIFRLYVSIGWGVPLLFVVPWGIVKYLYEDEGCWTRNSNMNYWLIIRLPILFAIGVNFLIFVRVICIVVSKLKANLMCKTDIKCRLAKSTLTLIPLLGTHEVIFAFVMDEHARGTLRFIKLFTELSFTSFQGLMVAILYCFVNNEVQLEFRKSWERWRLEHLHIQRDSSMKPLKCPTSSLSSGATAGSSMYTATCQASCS

agonist induced internalisation of hGLP-1R V36A (cell-surface ELISA with the anti-GLP-1R antibody, HEK293 cells): 12.4%
Substance: GLP-1 7–37 (liraglutide) (peptide)
